Source: article PMC7484505

How the values were obtained:
hNav1.7/A1632E (human) = hNav1.7/A1632E (human) (UniProt Q15858)
[1] = target: hNav1.7/A1632E^His-StrepII (human) (UniProt Q15858)
hNav1.7^GFP (human) = hNav1.7^GFP (human) (UniProt Q15858)

“hNav1.7/A1632E (from UniProt Q15858-3 1-1977) (natural protein)” gave a maximal relative persistent current of hNav1.7/A1632E in HEK293T cells (patch clamp), without against with co-expressed difopein (hNav1.7/A1632E (human)) of 13.2%.
For “hNav1.7/A1632E^His-StrepII (from UniProt Q15858-3 1-1977) (natural protein)”, the maximal relative persistent current of hNav1.7/A1632E in X. laevis oocytes (TEVC), without against with co-injected difopein cRNA [1] was -13.6%.
“hNav1.7/R896Q (from UniProt Q15858-3 1-1977) (natural protein)” gave a peak current density (whole-cell patch clamp) of the Nav1.7 stable HEK cell line (untagged hNav1.7/WT) on co-expression of hNav1.7/R896Q, against the stable line alone (hNav1.7^GFP (human)) of 31%.
